Target: T1, His-LCK (human, UniProt P06239 1-509)
T1 construct: Lymphocyte-specific protein tyrosine kinase (LCK), human, full length; Cloned into pET-32a (BamHI/XhoI); also called Recombinant His-tagged LCK
Experiment: pull-down; MBP fusion proteins bound to amylose resin, His-LCK incubated with 50 μL beads in 20 mM HEPES pH 7.4, 0.5% NP-40, 100 mM NaCl for 2 h at 4 °C; eluted with 10 mM maltose; immunoblot with anti-His-Tag and anti-MBP
Conditions: both partners purified

T1 sequence (P06239 whole entry): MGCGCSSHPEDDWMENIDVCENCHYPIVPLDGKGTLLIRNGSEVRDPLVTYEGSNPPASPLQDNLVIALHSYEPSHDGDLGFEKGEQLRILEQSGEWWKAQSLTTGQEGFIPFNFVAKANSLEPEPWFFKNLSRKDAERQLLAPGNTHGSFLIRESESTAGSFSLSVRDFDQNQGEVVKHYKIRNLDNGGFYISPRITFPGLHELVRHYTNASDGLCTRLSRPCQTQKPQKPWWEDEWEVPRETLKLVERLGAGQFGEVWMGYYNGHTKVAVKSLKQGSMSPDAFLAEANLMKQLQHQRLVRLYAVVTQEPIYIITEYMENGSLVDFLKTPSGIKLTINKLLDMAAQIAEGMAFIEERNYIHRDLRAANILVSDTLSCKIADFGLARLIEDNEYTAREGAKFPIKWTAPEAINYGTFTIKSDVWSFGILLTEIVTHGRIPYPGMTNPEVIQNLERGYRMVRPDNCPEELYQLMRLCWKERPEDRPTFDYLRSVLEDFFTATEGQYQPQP

Row | Binder | binding result
1 | MBP-FOXP3-Full (natural protein, human, UniProt Q9BZS1 1-431, looked up, Forkhead box P3 (FOXP3), human, full length, amino acids 1-431; Cloned into pMAL-c2 (BamHI/SalI); also called MBP-FOXP3 WT) MPNPRPGKPSAPSLALGPSPGASPSWRAAPKASDLLGARGPGGTFQGRDLRGGAHASSSSLNPMPPSQLQLPTLPLVMVAPSGARLGPLPHLQALLQDRPHFMHQLSTVDAHARTPVLQVHPLESPAMISLTPPTTATGVFSLKARPGLPPGINVASLEWVSREPALLCTFPNPSAPRKDSTLSAVPQSSYPLLANGVCKWPGCEKVFEEPEDFLKHCQADHLLDEKGRAQCLLQREMVQSLEQQLVLEKEKLSAMQAHLAGKMALTKASSVASSDKGSCCIVAAGSQGPVVPAWSGPREAPDSLFAVRRHLWGSHGNSTFPEFLHNMDYFKFHNMRPPFTYATLIRWAILEAPEKQRTLNEIYHWFTRMFAFFRNHPATWKNAIRHNLSLHKCFVRVESEKGAVWTVDELEFRKKRSQRPSRCSNPTPGP | binds
2 | MBP-FOXP3 ΔFKH (domain or fragment, human, UniProt Q9BZS1 1-332, looked up, Forkhead box P3 (FOXP3), human, fragment with a truncated forkhead domain, amino acids 1-332; Cloned into pMAL-c2; this vector is known to place MBP at the N-terminus (surmised)) MPNPRPGKPSAPSLALGPSPGASPSWRAAPKASDLLGARGPGGTFQGRDLRGGAHASSSSLNPMPPSQLQLPTLPLVMVAPSGARLGPLPHLQALLQDRPHFMHQLSTVDAHARTPVLQVHPLESPAMISLTPPTTATGVFSLKARPGLPPGINVASLEWVSREPALLCTFPNPSAPRKDSTLSAVPQSSYPLLANGVCKWPGCEKVFEEPEDFLKHCQADHLLDEKGRAQCLLQREMVQSLEQQLVLEKEKLSAMQAHLAGKMALTKASSVASSDKGSCCIVAAGSQGPVVPAWSGPREAPDSLFAVRRHLWGSHGNSTFPEFLHNMDYFK | binds

From PMC3796550, “Phosphorylation of FOXP3 by LCK Downregulates MMP9 Expression and Represses Cell Invasion” (PLoS ONE, 2013)
